The supplement of paper PMC6755084

B1: minF1; a variant is named by its letters at N, in order (parent)
chain: GAGACCGCAACTGAAAAGTTGTTANNNNAANGNNNGGTTGAATTTCTGCACGTAGAAGCAAAAGGC
B2: minF1; a variant is named by its letters at N, in order (parent)
chain: GAGACCGCAACTGAAAAGTTGTTATCAGAAATGNNNGGNTNNNTTTCTGCACGTAGAAGCAAAAGGC
B3: minF1; a variant is named by its letters at N, in order (parent)
chain: GAGACCGCAACTGAAAAGTTGTTNNNNAANNNNNGGNTNAATTTCTGCACGTAGAAGCAAAAGGC

Variants of: B1
Assay: fraction ligated after 30 min (ligated reads / total reads); higher = more ligase activity
Conditions: with F1*subA RNA substrate (template-directed ligation), 42 °C
How it was run: (§1)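 Oligo-pool templates of minimized ligase ribozyme variants were PCR-amplified, T7-transcribed and gel-purified. Ligated and unligated RNAs were gel-separated, reverse transcribed with barcoded primers, and MiSeq-sequenced; core bases were filtered at quality ≥30. Fraction ligated per variant was ligated reads over total reads.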

| Variant | fraction ligated |
| --- | --- |
| TCAGAGGA G32T | 0.0037 |
| AGAAGATG A24T A30T | 0.00936 |
| CAGATGAG | 0.00664 |
| CAGATGAT | 0.0096 |
| AGAAGATG A24C A30T | 0.0111 |
| CAGATGAT A24T | 0.00819 |
| TCAATGTG | 0.00417 |
| TCAATGAT T38G G40T | 0.0188 |
| TAGATGAT T38G G40T | 0.00516 |
| TAGATGAT | 0.00267 |
| TAGATGAG | 0.00428 |
| TCAGAGGT G32T T38G G40T | 0.00529 |
| TCAGAGGA G32T G36T T38G T39G G40T A41T A42C | 0.00198 |
| TCAGAGGA G32T G36T T38G T39G G40T A41T A42G | 0.00154 |
| TCAGAGGA G32T G36T T38G T39G G40T A41T A42T | 0.00119 |
| CAGATGAT T23A A24T T38G G40T A41G | 0.0927 |
| TCAGTGAT T38G G40T | 0.0275 |
| TCAGAGTG G32T | 0.00848 |
| CAAAGATG A30T | 0.00974 |
| TCAGAGAT G32T T38G G40T | 0.00839 |
| AGAAGATG T23A A24T A30T | 0.00339 |
| TCAGTGAT | 0.0235 |
| TCAGTGAG | 0.00523 |
| TCAGAATG | 0.00903 |

| Variant | fraction ligated |
| --- | --- |
| CGAAGATG A24T A30T | 0.0664 |
| CAGATGAG A24T | 0.00352 |
| CGAAGATG A30T | 0.0292 |
| CAGATATG T23A A24T | 0.00616 |
| CAGAGATG A30T | 0.0134 |
| CAGATGTG T23A A24T | 0.00275 |
| TCAGAGAG G32T | 0.011 |
| TCAGTGTG | 0.00427 |
| TAGAGATG A30T | 0.0449 |
| CAGAGATG A24T A30T | 0.0149 |
| TAGATATG | 0.00408 |
| TCAGAGGT G32T | 0.00299 |
| TCAATATG | 0.00928 |
| CAGATATG | 0.00456 |
| AGAAGATG A30T | 0.0065 |
| TGAAGATG A30T | 0.054 |
| TCAATGAT T38G G40T A41G | 0.302 |
| TCGATGTG | 0.0076 |
| CGAAGATG T23A A24T A30T | 0.0868 |
| CAGATGTG A24T | 0.00498 |
| CAGAGATG T23A A24T A30T | 0.0668 |
| TCGATGAT | 0.0366 |
| TCGATGAG | 0.00384 |
| CAAAGATG T23A A24T A30T | 0.0275 |

| Variant | fraction ligated |
| --- | --- |
| TCAGAGGA G32T T38G G40T | 0.00434 |
| TCAGAGGT G32T T38G G40T A41G | 0.0316 |
| TCGATGAT T38G G40T | 0.0543 |
| TCAGGATG A30T | 0.163 |
| TCAGAGTG | 0.0048 |
| TCAGAGAT T38G G40T | 0.004 |
| CAGATGAT T23A A24T T38G G40T | 0.0102 |
| TCAGAGGA G32T G36T T38G T39G G40T A41T | 0.00781 |
| TCAGAGGA G32T T38G G40T A41G | 0.00714 |
| TCAGAGAT T38G G40T A41G | 0.0517 |
| TCAGAGGA G32T G36T T38G G40T | 0.0174 |
| CAAAGATG A24T A30T | 0.0148 |
| CAGATGAT T38G G40T | 0.00757 |
| CAGATGTG | 0.00446 |
| TCAAGATG | 0.00472 |
| TCAGGATG | 0.00705 |
| CAGAGATG T23A A24T | 0.00547 |
| TAAAGATG A30T | 0.021 |
| TCAGAATG G32T | 0.00623 |
| TAGATGAT T38G G40T A41G | 0.025 |
| TCAGAGAT G32T | 0.00472 |
| CAGAGATG A24T | 0.00326 |
| CAGATGAG T23A A24T | 0.00151 |
| TCAGAGGG G32T | 0.00695 |

| Variant | fraction ligated |
| --- | --- |
| CAGAGATG | 0.00233 |
| TCAGAGAT G32T T38G G40T A41G | 0.0724 |
| TCGAGATG | 0.00545 |
| TCAGAGAG | 0.00214 |
| TCAGAGAT | 0.00503 |
| TAGATGTG | 0.00059 |
| CAGATGAT T38G G40T A41G | 0.0186 |
| CAGATATG A24T | 0.00546 |
| CAGATGAT T23A A24T | 0.0249 |
| TCGAGATG A30T | 0.205 |
| TCAGTGAT T38G G40T A41G | 0.392 |
| TCAATGAT | 0.0159 |
| TCAATGAG | 0.00836 |
| CAGATGAT A24T T38G G40T | 0.00536 |
| TAGAGATG | 0.00517 |
| TCGATATG | 0.0107 |
| TCAAGATG A30T | 0.111 |
| CAGATGAT A24T T38G G40T A41G | 0.0273 |
| TCAGTATG | 0.011 |
| TCAGAGGA G32T G36T T38G G40T A41G | 0.0306 |
| AGAAGATG T23A A24C A30T | 0.00911 |
| TCGATGAT T38G G40T A41G | 0.576 |

Variants of: B2
Assay: as above
Conditions: with F1*subA RNA substrate (template-directed ligation), 42 °C
How it was run: as §1

| Variant | fraction ligated |
| --- | --- |
| GATGTAG | 0.00461 |
| GATGTAC | 0.00239 |
| GATGTGA | 0.844 |
| GATGTGG | 0.00509 |
| GATGTTA | 0.0473 |
| GATGTTT | 0.000955 |
| GATGTTC | 0.00331 |
| GAGTGAA | 0.00382 |
| ATGTGAA A24T T25C C26A A27G G28A A31T T32G | 0.0261 |
| GTGTGAA | 0.0136 |
| ATGTGAA G28A A31T T32G | 0.52 |
| GATGTCT | 0.00139 |
| GATGTCG | 0.00256 |
| GATGTCA | 0.0146 |
| GATTGAA | 0.023 |

Variants of: B3
Assay: as above
Conditions: with F1*subA RNA substrate (template-directed ligation), 42 °C
How it was run: as §1

| Variant | fraction ligated |
| --- | --- |
| TCAGTGGAGTG | 0.00343 |
| ATCGATGGGTG | 0 |
| TCAGATGGTGT T23A | 0.00338 |
| TCGATGGATTG T23A | 0.116 |
| CAAAGGATGTG A29T | 0.00429 |
| ACAGAGGATGT A40G | 0.00295 |
| ATCAAATTGTG A28G | 0.00273 |
| TCGATGGTGTG | 0.00336 |
| TAGATGGATTG | 0.00552 |
| TCGATGGAGTG T23A | 0.00843 |
| TCAGATGGAGT G35T T38G A40T | 0.00171 |
| TCAATGGAGTG | 0.00287 |
| ATAGATATGTG | 0.00482 |
| TCAGATGGAGT T23A G35T | 0.0188 |
| ATAATGGATTG | 0.00677 |
| ATAGTGGATTG | 0.00612 |
| TCAGATGGGTG | 0.00281 |
| TCAGATGGTGT T23A A40G | 0.00684 |
| ATGATGGATGT A40G | 0.0235 |
| ATCAAGGATGT A28G | 0.00393 |

| Variant | fraction ligated |
| --- | --- |
| ATCAAAGGGTG A28G | 0.0042 |
| ATCAAATGAGT A28G | 0.00227 |
| TCAGATGGATG T23A | 0.00344 |
| CAGATGATGTG | 0.00402 |
| ATCAAATGAGT A28G G35T | 0.00393 |
| TCAAGGATGTG T23A A29T | 0.00621 |
| TAGATGGAGTG T23A | 0 |
| CGAAGGATGTG T23A A29T | 0.00782 |
| TCAGATGATGT | 0.00279 |
| ATCAAATGAGT A28G A40G | 0.00391 |
| ATCAAATGGGT A28G A40G | 0.00524 |
| CAGATGGATGT T23A A40G | 0.0214 |
| TAGATGGTGTG T23A | 0.00156 |
| ATAGGGATGTG | 0.00301 |
| ATCAAAGGTTG A28G | 0.0026 |
| ATCGATGGTGT A40G | 0.0134 |
| ATCGATGATGT A40G | 0.0304 |
| TCAGTGGATTG T23A | 0.0201 |
| TCGATGGATGT T23A | 0.0123 |
| ATCAAAGATTG A28G | 0.00113 |

| Variant | fraction ligated |
| --- | --- |
| TCAATGGATGT A40G | 0.0177 |
| TCAGAGGTGTG T23A | 0.0038 |
| ATCAATGAGTG A28G | 0.00195 |
| TGAAGGATGTG T23A A29T | 0.00369 |
| TCAATGGATTG T23A | 0.0162 |
| ATCAAATGGGT A28G G35T A40G | 0.00694 |
| TCAGATGAGTG | 0.00318 |
| ATCAAGGTGTG | 0.00569 |
| ATCATGGATGT | 0.00625 |
| TCAGTGGATGT T23A | 0.00804 |
| TCGATGGTGTG T23A | 0.00501 |
| ATCAATGGAGT | 0.00569 |
| ATCAAATGAGT A28G G35T T38G A40T | 0.00229 |
| ATCATGGAGTG A28G | 0.00478 |
| TCAATGGTGTG | 0.00313 |
| ATCAATGGAGT A40G | 0.00544 |
| ATCAAATGAGT A28G G35T A40G | 0.0046 |
| ATCAATGATGT A28G A40G | 0.0266 |
